For orientation: Kd means the constant that tells how readily two partners part at equilibrium. High values mean weaker binding, low ones tighter binding.

Data on one molecule can be found in paper PMC6681757, “Site-specific phosphorylation of myosin binding protein-C coordinates thin and thick filament activation in cardiac muscle” (Proceedings of the National Academy of Sciences of the …, 2019).

The assay addresses T1, myosin S2Δ, the first 126 amino acids of myosin S2 (cardiac myosin).
T1 construct: cardiac myosin heavy chain, S2 domain, first 126 amino acids of S2
Briefly: MST; C1mC2 species (or native full-length cMyBP-C) titrated against myosin S2Δ; normalized MST curves; conditions in SI Appendix. To be noted: both partners purified.

B1: C1mC2-S288A monophosphorylated by PKA (C1mC2-S288A-1P) (domain or fragment)
chain: PIGLFLMRPQDGEVTVGGSIVFSARVAGASLLKPPVVKWFKGKWVDLSSKVGQHLQLHDSYDRASKVYLFELHITDAQATSAGGYRCEVSTKDKFDSCNFNLTVHEAIGSGDLDLRSAFRRTSLAGTGRRTADSHEDAGTLDFSSLLKKSSSFRRDSKLEAPAEEDVWEILRQAPPSEYERIAFQHGVTDLRGMLKRLKGMKHDEKKSTAFQKKLEPAYQVNKGHKIRLTVELADPDAEVKWLKNGQEIQMSGRYIFESIGAKRTLTISQCSLADDAAYQCVVGGEKCSTELFVKEP
modifications: one phosphate (monophosphorylated by PKA); the phosphorylated residue is not given
For B1, the Kd was approximately 20 µM.
